Results reported in the Human Domainome abundance scans (Beltran et al. 2025).
± gives the uncertainty stated by the source.

B1: Unconventional myosin-Ie, residues 1051 to 1108; numbered along this chain, Q12965 (parent)
chain: PQVPQCKALYAYDAQDTDELSFNANDIIDIIKEDPSGWWTGRLRGKQGLFPNNYVTKI

Variants of: B1
Test: abundance fitness (aPCA) (normalised: wild type 0, dead -1); higher = more abundant; growth selection in yeast, the domain comes from the species named
Settings: Homo sapiens
For PQVPQCKALYAYDAQDTDELSFNANDIIDIIKEDPSGWWTGRLRGKQGLFPMNYVTKI [N52M], the abundance fitness was -0.231 ± 0.055. PQVPQCKALYAYDAQDTDELSFNANDIIDIIKEDPSGWWTGRLRGKQGLFPQNYVTKI [N52Q] showed an abundance fitness of -0.197 ± 0.096. PQVPQCKALYAYDAQDTDELSFNANDIIDIIKEDPSGWWTGRLRGKQGLFPRNYVTKI [N52R] showed an abundance fitness of -0.114 ± 0.06. PQVPQCKALYAYDAQDTDELSFNANDIIDIIKEDPSGWWTGRLRGKQGLFPSNYVTKI [N52S] gave an abundance fitness of 0.024 ± 0.048. With PQVPQCKALYAYDAQDTDELSFNANDIIDIIKEDPSGWWTGRLRGKQGLFPWNYVTKI [N52W] the abundance fitness was -0.053 ± 0.041. PQVPQCKALYAYDAQDTDELSFNANDIIDIIKEDPSGWWTGRLRGKQGLFPGNYVTKI [N52G] gave an abundance fitness of 0.02 ± 0.032. In the case of PQVPQCKALYAYDAQDTDELSFNANDIIDIIKEDPSGWWTGRLRGKQGLFPKNYVTKI [N52K], the abundance fitness is reported as -0.284 ± 0.14. In the case of PQVPQCKALYAYDAQDTDELSFNANDIIDIIKEDPSGWWTGRLRGKQGLFPLNYVTKI [N52L], the abundance fitness is reported as -0.027 ± 0.048. For PQVPQCKALYAYDAQDTDELSFNANDIIDIIKEDPSGWWTGRLRGKQGLFPHNYVTKI [N52H], the abundance fitness was -0.087 ± 0.1. PQVPQCKALYAYDAQDTDELSFNANDIIDIIKEDPSGWWTGRLRGKQGLFPVNYVTKI [N52V] showed an abundance fitness of -0.068 ± 0.047. PQVPQCKALYAYDAQDTDELSFNANDIIDIIKEDPSGWWTGRLRGKQGLFPTNYVTKI [N52T] gave an abundance fitness of -0.087 ± 0.042. For PQVPQCKALYAYDAQDTDELSFNANDIIDIIKEDPSGWWTGRLRGKQGLFPINYVTKI [N52I], the abundance fitness was -0.123 ± 0.093. With PQVPQCKALYAYDAQDTDELSFNANDIIDIIKEDPSGWWTGRLRGKQGLFPYNYVTKI [N52Y] the abundance fitness was -0.209 ± 0.11. PQVPQCKALYAYDAQDTDELSFNANDIIDIIKEDPSGWWTGRLRGKQGLFPNNYVKKI [T56K] gave an abundance fitness of -0.165 ± 0.088. PQVPQCKALYAYDAQDTDELSFNANDIIDIIKEDPSGWWTGRLRGKQGLFPNNYVIKI [T56I] gave an abundance fitness of -0.261 ± 0.13. Variant PQVPQCKALYAYDAQDTDELSFNANDIIDIIKEDPSGWWTGRLRGKQGLFPNNYVFKI [T56F] has an abundance fitness of -0.023 ± 0.062. PQVPQCKALYAYDAQDTDELSFNANDIIDIIKEDPSGWWTGRLRGKQGLFPNNYVHKI [T56H] gave an abundance fitness of 0.044 ± 0.12. PQVPQCKALYAYDAQDTDELSFNANDIIDIIKEDPSGWWTGRLRGKQGLFPNNYVDKI [T56D] gave an abundance fitness of -0.034 ± 0.039. PQVPQCKALYAYDAQDTDELSFNANDIIDIIKEDPSGWWTGRLRGKQGLFPNNYVEKI [T56E] showed an abundance fitness of 0.033 ± 0.038. In the case of PQVPQCKALYAYDAQDTDELSFNANDIIDIIKEDPSGWWTGRLRGKQGLFPNNYVCKI [T56C], the abundance fitness is reported as -0.074 ± 0.078. With PQVPQCKALYAYDAQDTDELSFNANDIIDIIKEDPSGWWTGRLRGKQGLFPNNYVNKI [T56N] the abundance fitness was -0.078 ± 0.05. For PQVPQCKALYAYDAQDTDELSFNANDIIDIIKEDPSGWWTGRLRGKQGLFPNNYVWKI [T56W], the abundance fitness was -0.122 ± 0.076. For PQVPQCKALYAYDAQDTDELSFNANDIIDIIKEDPSGWWTGRLRGKQGLFPNNYVGKI [T56G], the abundance fitness was -0.255 ± 0.044. Variant PQVPQCKALYAYDAQDTDELSFNANDIIDIIKEDPSGWWTGRLRGKQGLFPNNYVRKI [T56R] has an abundance fitness of -0.097 ± 0.046. PQVPQCKALYAYDAQDTDELSFNANDIIDIIKEDPSGWWTGRLRGKQGLFPNNYVYKI [T56Y] showed an abundance fitness of -0.197 ± 0.34. PQVPQCKALYAYDAQDTDELSFNANDIIDIIKEDPSGWWTGRLRGKQGLFPNNYVMKI [T56M] gave an abundance fitness of 0.023 ± 0.058. In the case of PQVPQCKALYAYDAQDTDELSFNANDIIDIIKEDPSGWWTGRLRGKQGLFPNNYVAKI [T56A], the abundance fitness is reported as -0.075 ± 0.041. With PQVPQCKALYAYDAQDTDELSFNANDIIDIIKEDPSGWWTGRLRGKQGLFPNNYVVKI [T56V] the abundance fitness was -0.074 ± 0.034. PQVPQCKALYAYDAQDTDELSFNANDIIDIIKEDPSGWWTGRLRGKQGLFPNNYVSKI [T56S] gave an abundance fitness of -0.042 ± 0.047. PQVPQCKALYAYDAQDTDELSFNANDIIDIIKEDPSGWWTGRLRGKQGLFPNNYVPKI [T56P] gave an abundance fitness of -0.534 ± 0.081. With PQVPQCKALYAYDAQDTDELSFNANDIIDIIKEDPSGWWTGRLRGKQGLFPNNFVTKI [Y54F] the abundance fitness was -0.243 ± 0.096. Variant PQVPQCKALYAYDAQDTDELSFNANDIIDIIKEDPSGWWTGRLRGKQGLFPNNQVTKI [Y54Q] has an abundance fitness of -0.43 ± 0.088. For PQVPQCKALYAYDAQDTDELSFNANDIIDIIKEDPSGWWTGRLRGKQGLFPNNVVTKI [Y54V], the abundance fitness was -0.145 ± 0.047. For PQVPQCKALYAYDAQDTDELSFNANDIIDIIKEDPSGWWTGRLRGKQGLFPNNPVTKI [Y54P], the abundance fitness was -0.814 ± 0.23. PQVPQCKALYAYDAQDTDELSFNANDIIDIIKEDPSGWWTGRLRGKQGLFPNNAVTKI [Y54A] gave an abundance fitness of -0.055 ± 0.032. In the case of PQVPQCKALYAYDAQDTDELSFNANDIIDIIKEDPSGWWTGRLRGKQGLFPNNEVTKI [Y54E], the abundance fitness is reported as -0.97 ± 0.23. For PQVPQCKALYAYDAQDTDELSFNANDIIDIIKEDPSGWWTGRLRGKQGLFPNNCVTKI [Y54C], the abundance fitness was -0.087 ± 0.064. In the case of PQVPQCKALYAYDAQDTDELSFNANDIIDIIKEDPSGWWTGRLRGKQGLFPNNLVTKI [Y54L], the abundance fitness is reported as -0.04 ± 0.056. For PQVPQCKALYAYDAQDTDELSFNANDIIDIIKEDPSGWWTGRLRGKQGLFPNNGVTKI [Y54G], the abundance fitness was -0.713 ± 0.089. PQVPQCKALYAYDAQDTDELSFNANDIIDIIKEDPSGWWTGRLRGKQGLFPNNNVTKI [Y54N] gave an abundance fitness of -0.657 ± 0.12. Work on PQVPQCKALYAYDAQDTDELSFNANDIIDIIKEDPSGWWTGRLRGKQGLFPNNMVTKI [Y54M] yielded an abundance fitness of -0.16 ± 0.085. For PQVPQCKALYAYDAQDTDELSFNANDIIDIIKEDPSGWWTGRLRGKQGLFPNNKVTKI [Y54K], the abundance fitness was -0.158 ± 0.049. PQVPQCKALYAYDAQDTDELSFNANDIIDIIKEDPSGWWTGRLRGKQGLFPNNDVTKI [Y54D] showed an abundance fitness of -0.949 ± 0.06. For PQVPQCKALYAYDAQDTDELSFNANDIIDIIKEDPSGWWTGRLRGKQGLFPNNHVTKI [Y54H], the abundance fitness was 0.038 ± 0.07. PQVPQCKALYAYDAQDTDELSFNANDIIDIIKEDPSGWWTGRLRGKQGLFPNNIVTKI [Y54I] gave an abundance fitness of -0.296 ± 0.12.
